Ends that are not written are not given here. Bounds are passed on as bounds.

The values that follow come from article PMC7360965 (The EMBO Journal, 2020).

B1: FAM-lifeAct-17 peptide (full-length lifeAct) (peptide)
peptide: MGVADLIKKFESISKEE
modifications: also: FAM label, position not given here
notes: also called lifeAct peptide; source: synthetic peptide (custom synthesized, LifeTein, USA)
B2: FAM-lifeAct-14 peptide (carboxy-terminal truncated version of lifeAct) (peptide)
peptide: MGVADLIKKFESIS
modifications: not fully specified (N-terminus); also: FAM label, position not given here
notes: source: synthetic peptide (custom synthesized, LifeTein, USA)
B3: Human UTRN-ABD (amino acids 1-261) H29A (domain or fragment)
chain: MAKYGEHEASPDNGQNEFSDIIKSRSDEANDVQKKTFTKWINARFSKSGKPPINDMFTDLKDGRKLLDLLEGLTGTSLPKERGSTRVHALNNVNRVLQVLHQNNVELVNIGGTDIVDGNHKLTLGLLWSIILHWQVKDVMKDVMSDLQQTNSEKILLSWVRQTTRPYSQVNVLNFTTSWTDGLAFNAVLHRHKPDLFSWDKVVKMSPIERLEHAFSKAQTYLGIEKLLDPEDVAVQLPDKKSIIMYLTSLFEVLPQQVTID
notes: source: E. coli Rosetta DE3, purified (His-Trap, Superdex-200)
B4: Human UTRN-ABD (amino acids 1-261) I22D (domain or fragment)
chain: MAKYGEHEASPDNGQNEFSDIDKSRSDEHNDVQKKTFTKWINARFSKSGKPPINDMFTDLKDGRKLLDLLEGLTGTSLPKERGSTRVHALNNVNRVLQVLHQNNVELVNIGGTDIVDGNHKLTLGLLWSIILHWQVKDVMKDVMSDLQQTNSEKILLSWVRQTTRPYSQVNVLNFTTSWTDGLAFNAVLHRHKPDLFSWDKVVKMSPIERLEHAFSKAQTYLGIEKLLDPEDVAVQLPDKKSIIMYLTSLFEVLPQQVTID
notes: as for B3
B5: Human UTRN-ABD (amino acids 1-261) N109A (domain or fragment)
chain: MAKYGEHEASPDNGQNEFSDIIKSRSDEHNDVQKKTFTKWINARFSKSGKPPINDMFTDLKDGRKLLDLLEGLTGTSLPKERGSTRVHALNNVNRVLQVLHQNNVELVAIGGTDIVDGNHKLTLGLLWSIILHWQVKDVMKDVMSDLQQTNSEKILLSWVRQTTRPYSQVNVLNFTTSWTDGLAFNAVLHRHKPDLFSWDKVVKMSPIERLEHAFSKAQTYLGIEKLLDPEDVAVQLPDKKSIIMYLTSLFEVLPQQVTID
notes: as for B3
B6: Human UTRN-ABD (amino acids 1-261) V87D (domain or fragment)
chain: MAKYGEHEASPDNGQNEFSDIIKSRSDEHNDVQKKTFTKWINARFSKSGKPPINDMFTDLKDGRKLLDLLEGLTGTSLPKERGSTRDHALNNVNRVLQVLHQNNVELVNIGGTDIVDGNHKLTLGLLWSIILHWQVKDVMKDVMSDLQQTNSEKILLSWVRQTTRPYSQVNVLNFTTSWTDGLAFNAVLHRHKPDLFSWDKVVKMSPIERLEHAFSKAQTYLGIEKLLDPEDVAVQLPDKKSIIMYLTSLFEVLPQQVTID
notes: also called UTRN-V87D; source: E. coli Rosetta DE3, purified (His-Trap, Superdex-200)

For this experiment, the target named is F-actin (filamentous actin), actin purified from chicken breast (Gallus gallus) (chicken (Gallus gallus), UniProt P68139 1-377). In words: co-sedimentation. To be noted: both partners purified.
Consider B1, for which the Kd amounted to 2200 nM.
In the case of B2, the Kd was 1200 nM.
With B3 the figure was 2800 nM.
The molecule B4 returned a Kd of 38000 nM.
As to B5, the Kd was 55000 nM.
Molecule B6 showed a Kd above 100000 nM.
